Experiment [1] has as its target T1, cyno IL-12RB2 overexpressed on 293T cells (Example 2) (cyno, UniProt A0A2K5VNI7 24-860).
T1 construct: whole, on cells
T1 sequence: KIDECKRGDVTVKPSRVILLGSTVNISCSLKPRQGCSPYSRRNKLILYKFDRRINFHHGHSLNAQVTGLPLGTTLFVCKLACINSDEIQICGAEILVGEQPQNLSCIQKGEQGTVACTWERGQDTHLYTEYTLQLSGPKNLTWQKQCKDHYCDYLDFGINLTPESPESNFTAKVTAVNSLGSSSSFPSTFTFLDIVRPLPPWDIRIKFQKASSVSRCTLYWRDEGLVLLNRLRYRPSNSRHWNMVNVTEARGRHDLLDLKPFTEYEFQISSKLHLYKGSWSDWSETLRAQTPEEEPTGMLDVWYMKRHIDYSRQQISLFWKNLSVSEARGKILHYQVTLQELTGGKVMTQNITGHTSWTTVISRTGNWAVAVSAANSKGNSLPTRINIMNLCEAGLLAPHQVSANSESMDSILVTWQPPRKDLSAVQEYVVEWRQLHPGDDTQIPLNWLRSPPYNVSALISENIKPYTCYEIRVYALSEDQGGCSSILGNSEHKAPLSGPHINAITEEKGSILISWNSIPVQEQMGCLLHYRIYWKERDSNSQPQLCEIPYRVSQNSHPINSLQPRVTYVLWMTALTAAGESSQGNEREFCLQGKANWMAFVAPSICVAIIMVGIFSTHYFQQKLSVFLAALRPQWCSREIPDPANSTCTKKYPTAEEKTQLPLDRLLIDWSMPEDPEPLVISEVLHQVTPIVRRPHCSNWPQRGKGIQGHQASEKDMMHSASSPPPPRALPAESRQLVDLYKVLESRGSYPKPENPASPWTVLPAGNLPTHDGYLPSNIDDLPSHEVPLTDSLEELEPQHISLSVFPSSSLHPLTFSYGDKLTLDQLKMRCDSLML
Kind of experiment: FACS, hybridoma supernatant, 293T.

Experiment [2] concerns the target T2, human IL-12RB2 overexpressed on 293T cells (Example 2) (human, UniProt Q99665 24-862).
T2 construct: whole, on cells
T2 sequence (looked up): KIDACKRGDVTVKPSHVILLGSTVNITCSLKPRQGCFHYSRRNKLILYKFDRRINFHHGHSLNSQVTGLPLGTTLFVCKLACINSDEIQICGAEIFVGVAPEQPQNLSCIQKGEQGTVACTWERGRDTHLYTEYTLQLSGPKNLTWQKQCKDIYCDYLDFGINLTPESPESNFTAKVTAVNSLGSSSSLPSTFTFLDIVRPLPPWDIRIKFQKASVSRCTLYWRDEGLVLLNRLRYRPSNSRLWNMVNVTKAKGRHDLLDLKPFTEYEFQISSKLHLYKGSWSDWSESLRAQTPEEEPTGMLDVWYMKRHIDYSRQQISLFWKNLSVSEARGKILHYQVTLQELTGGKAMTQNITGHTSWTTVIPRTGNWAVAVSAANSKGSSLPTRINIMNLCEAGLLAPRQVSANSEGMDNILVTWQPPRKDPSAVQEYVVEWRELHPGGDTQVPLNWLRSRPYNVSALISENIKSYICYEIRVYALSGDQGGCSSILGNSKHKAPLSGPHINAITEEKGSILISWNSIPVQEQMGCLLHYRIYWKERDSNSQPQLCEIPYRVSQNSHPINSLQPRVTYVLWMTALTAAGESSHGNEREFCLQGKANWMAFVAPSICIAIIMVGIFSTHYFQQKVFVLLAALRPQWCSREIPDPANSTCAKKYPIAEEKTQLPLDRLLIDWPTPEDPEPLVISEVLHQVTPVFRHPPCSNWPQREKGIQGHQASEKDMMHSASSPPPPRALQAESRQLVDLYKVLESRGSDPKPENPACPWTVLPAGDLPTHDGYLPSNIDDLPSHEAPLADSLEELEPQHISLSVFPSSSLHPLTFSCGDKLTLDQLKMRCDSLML
Kind of experiment: FACS, hybridoma supernatant, 293T.

The target of experiment [3] is T3, IL-12 receptor endogenously expressed on THP-1 cells (UniProt P42701 24-662; Q99665 24-862).
T3 construct: whole, on cells
Kind of experiment: FACS, hybridoma supernatant, THP-1.

B1: 85802_10K12 (antibody, V domains shown)
VH: QVTLRESGPALVKPTQTLTLTCTFSGFSLSTSGMCVSWIRQPPGKALEWLALIYWDDDKYYSTSLKTRLTISKDTSKNQVVLTMTNMDPVDTATYYCARMRRGIEAFDIWGQGTMVTVFS
VL: QSVLTQPPSVSGAPGQRVTISCTGSSSNIGAGYDVHWYQQLPGTAPKLLIFGYSNRPSGVPVRFSGSKSGTSASLAITGLLAEDEADFYCQSFDISLTGWVFGGGTKLTVL
notes: also called 85802_10K12A
For B1, the “Fold over parental 293T” value worked out at 13 fold in experiment [1] and 3.3 fold in experiment [2]. The molecule further returned a Fold over buffer in experiment [3] of 27 fold.

B2: 85802_02K15 (antibody, V domains shown)
VH: EVQLVQSGTEVKKPGESLKISCKGSGYSFTSYWIGWVRQMPGKGLEWMGNIYPGDSDTRYSPSFQGHVTISADKSISTAYLQWSSLKASDTAMYYCARRGGGYWGQGTLVTVSS
VL: not shown
notes: also called 85802_02K15A
In the case of B2, the “Fold over parental 293T” value in experiment [1] was 6 fold; in experiment [2], 3.3 fold. The molecule further yielded a Fold over buffer in experiment [3] of 53 fold.

B3: 85802_06A17 (antibody, V domains shown)
VH: EVQLVQSGAEVKKPGESLKISCKGSGYSFTSYWIGWVRQMPGKGLECMGIIYPGDSDTRYSPSFQGQVTISADKSISTAYLQWSSLKASDTAMYYCARHEGAYWYFDLWGRGTLVTVSS
VL: QSVLTQPPSVSGAPGQRVTISCTGSSSNIGAGYDVHWYQQLPGTAPKVLIYGNSNRPSGVPDRFSGSKSGTSASLAITGLQAEDEADYYCQSLDTSHVVFGGGTKLTVL
notes: also called 85802_06A17A
For B3, the figures for the “Fold over parental 293T” value in experiment [1] and in experiment [2] were 11 fold and 2.8 fold, respectively. The Fold over buffer in experiment [3] came out at 28 fold.

B4: 85802_10M17 (antibody, V domains shown)
VH: EVLLVESGGGLVKPGGSLRLSCAASGFTFSSYSMNWVRQAPGKGLEWVSSISSSSDYIHYADSVRGRFTISRDNAKNSLYLQMNSLRAEDTAVYYCARSELGFDYWGQGTLVTVSS
VL: DIQMTQSPSSVSASVGDRVTITCRASQGISIWLAWYQQKPGKAPKPLIYAASSLQSGVPSRFSGSGSGTDFTLTISSLQPEDFATYYCQQANSFPLTFGGGTKVEIK
notes: also called 85802_10M17A
Take B4: the figures for the “Fold over parental 293T” value in experiment [1] and in experiment [2] were 12 fold and 3.8 fold, respectively. For the same molecule, the Fold over buffer in experiment [3] is 21 fold.

B5: 85802_06H06 (antibody, V domains shown)
VH: QVHLQESGPGLVKPSETLSLTCTVSGGSISYYYWNWIRQPPGKGLEWIASIYNSGNINYNPSLKSRVTISVDTSKNQFSLKLTSVTAADTAVYYCARGGYSYGYFDNWGQGILVTVSS
VL: SYELTQPPSVSVSPGQTASITCSGRELGNKYAYWYQQKPGQSPVLVIYEDYKRPSGIPERFSGSNSGNTATLTISGTQAMDEADYYCQAWDSSTVIFGGGTKLTVL
notes: also called 85802_06H06A
Take B5: the entries for the “Fold over parental 293T” value in experiment [1] and in experiment [2] were 10 fold and 2.9 fold, respectively. The Fold over buffer in experiment [3] worked out at 34 fold.

B6: 85802_06F06 (antibody, V domains shown)
VH: QVQLQESGPGLVKPSETLSLTCTVSGGSISSYYWSWIRQPPGKGLEWFGYIYDSGSTNYNPSLKSRVTISVDTSKNQFSLKLSSVTAADTAVYYCARGSYFWYFDLWGRGTLVTVSS
VL: SYELTQPPSVSVSPGQTASITCSGDKLGAKYASWYHQKPGQSPVLVIYQDTKRPSGIPERFSGSNSGNTATLTISGTQAMDEADYYCQAWDSSTVVFGGGTKLTVL
notes: also called 85802_06F06A
On to B6, for which the figures for the “Fold over parental 293T” value in experiment [1] and in experiment [2] were 14 fold and 3.3 fold, respectively. The molecule also yielded a Fold over buffer in experiment [3] of 35 fold.

B7: 85802_08F20 (antibody, V domains shown)
VH: QVQLVQSGAEVKKPGASVKVSCKASGYTFIGYYIHWVRQAPGQGLEWMGWINPHSGGTNYAQKFQGRVTMTRDTSISTAYMELSRLRSDDTAIYYCTKEANNWGYAFDIWGQGTMVTVSS
VL: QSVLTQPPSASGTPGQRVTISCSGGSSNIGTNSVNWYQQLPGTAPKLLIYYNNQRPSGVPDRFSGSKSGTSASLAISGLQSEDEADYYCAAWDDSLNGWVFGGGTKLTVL
notes: also called 85802_08F20A
Consider B7, for which the results for the “Fold over parental 293T” value in experiment [1] and in experiment [2] were 8 fold and 3.4 fold, respectively. Further, the Fold over buffer in experiment [3] turned out to be 21 fold.

The record behind these values is patent US20250019450A1 (DIAGONAL THERAPEUTICS, published 2025).
